According to patent US20140271635A1 (Novartis, published 2014):

T1: full length human CD19 expressed on mouse preB cell line 300.19 (300.19-hsCD19FL) (human, UniProt P15391 20-556)
T1 construct: whole, on cells; also called hCD19; 300.CD19
T1 sequence (looked up): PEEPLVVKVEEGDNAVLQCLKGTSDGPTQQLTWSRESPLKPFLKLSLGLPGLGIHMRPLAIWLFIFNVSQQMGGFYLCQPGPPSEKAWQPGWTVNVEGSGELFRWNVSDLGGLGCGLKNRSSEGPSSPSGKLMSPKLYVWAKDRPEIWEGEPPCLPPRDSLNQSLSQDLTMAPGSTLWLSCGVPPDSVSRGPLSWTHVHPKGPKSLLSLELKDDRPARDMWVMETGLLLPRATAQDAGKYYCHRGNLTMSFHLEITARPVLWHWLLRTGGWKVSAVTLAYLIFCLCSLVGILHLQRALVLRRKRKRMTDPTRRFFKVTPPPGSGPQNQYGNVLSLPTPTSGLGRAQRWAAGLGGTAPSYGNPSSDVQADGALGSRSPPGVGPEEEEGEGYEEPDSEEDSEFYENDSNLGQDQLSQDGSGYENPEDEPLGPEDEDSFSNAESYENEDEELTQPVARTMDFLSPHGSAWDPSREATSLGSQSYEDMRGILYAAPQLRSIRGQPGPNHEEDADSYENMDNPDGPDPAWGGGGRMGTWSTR


Target: T1, full length human CD19 expressed on …
Experiment: flow cytometry on mouse 300.19 cells expressing hCD19, His-tagged scFv
Protocol: Mouse cell line 300.CD19 were grown in RPMI 1640 with 0.5 mg/ml Zeocin. Around 5e5 cells/per well were transferred to the BD Falcon 96 well plate. The cells were spin down at 900 rpm (Sorval Legend XT centrifuge) for 3 minutes. The supernatant were removed. Anti-CD19 scFv protein samples were diluted in DPBS with 5% FBS. The samples were added into the wells, mixed well with the cells and incubated for 1 hour. The cells were washed twice in the DPBS with 5% FBS. The cells were incubated with antipoly His PE (R&D) for 1 hour, washed twice before FACS analysis (LSRII from BD Biosciences).

| binding result | Binder |
| --- | --- |
| binds | 100796 CAR7 - Soluble scFv (scFv, Built here without the leader) scFv: QVQLQESGPGLVKPSETLSLTCTVSGVSLPDYGVSWIRQPPGKGLEWIGVIWGSETTYYSSSLKSRVTISKDNSKNQVSLKLSSVTAADTAVYYCAKHYYYGGSYAMDYWGQGTLVTVSSGGGGSGGGGSGGGGSGGGGSEIVMTQSPATLSLSPGERATLSCRASQDISKYLNWYQQKPGQAPRLLIYHTSRLHSGIPARFSGSGSGTDYTLTISSLQPEDFAVYFCQQGNTLPYTFGQGTKLEIKHHHHHHHH |
| binds | 100798 CAR8 - Soluble scFv (scFv, Built here without the leader) scFv: QVQLQESGPGLVKPSETLSLTCTVSGVSLPDYGVSWIRQPPGKGLEWIGVIWGSETTYYQSSLKSRVTISKDNSKNQVSLKLSSVTAADTAVYYCAKHYYYGGSYAMDYWGQGTLVTVSSGGGGSGGGGSGGGGSGGGGSEIVMTQSPATLSLSPGERATLSCRASQDISKYLNWYQQKPGQAPRLLIYHTSRLHSGIPARFSGSGSGTDYTLTISSLQPEDFAVYFCQQGNTLPYTFGQGTKLEIKHHHHHHHH |
| binds | 103104 CAR 3 - Soluble scFv (scFv, Built here without the leader) scFv: QVQLQESGPGLVKPSETLSLTCTVSGVSLPDYGVSWIRQPPGKGLEWIGVIWGSETTYYSSSLKSRVTISKDNSKNQVSLKLSSVTAADTAVYYCAKHYYYGGSYAMDYWGQGTLVTVSSGGGGSGGGGSGGGGSEIVMTQSPATLSLSPGERATLSCRASQDISKYLNWYQQKPGQAPRLLIYHTSRLHSGIPARFSGSGSGTDYTLTISSLQPEDFAVYFCQQGNTLPYTFGQGTKLEIKHHHHHHHH |
| binds | 103106 CAR4 - Soluble scFv (scFv, Built here without the leader) scFv: QVQLQESGPGLVKPSETLSLTCTVSGVSLPDYGVSWIRQPPGKGLEWIGVIWGSETTYYQSSLKSRVTISKDNSKNQVSLKLSSVTAADTAVYYCAKHYYYGGSYAMDYWGQGTLVTVSSGGGGSGGGGSGGGGSEIVMTQSPATLSLSPGERATLSCRASQDISKYLNWYQQKPGQAPRLLIYHTSRLHSGIPARFSGSGSGTDYTLTISSLQPEDFAVYFCQQGNTLPYTFGQGTKLEIKHHHHHHHH |
| binds | 99789 CAR5 - Soluble scFv (scFv, Built here without the leader) scFv: EIVMTQSPATLSLSPGERATLSCRASQDISKYLNWYQQKPGQAPRLLIYHTSRLHSGIPARFSGSGSGTDYTLTISSLQPEDFAVYFCQQGNTLPYTFGQGTKLEIKGGGGSGGGGSGGGGSGGGGSQVQLQESGPGLVKPSETLSLTCTVSGVSLPDYGVSWIRQPPGKGLEWIGVIWGSETTYYSSSLKSRVTISKDNSKNQVSLKLSSVTAADTAVYYCAKHYYYGGSYAMDYWGQGTLVTVSSHHHHHHHH |
| binds | 99790 CAR6 - Soluble scFv (scFv, Built here without the leader) scFv: EIVMTQSPATLSLSPGERATLSCRASQDISKYLNWYQQKPGQAPRLLIYHTSRLHSGIPARFSGSGSGTDYTLTISSLQPEDFAVYFCQQGNTLPYTFGQGTKLEIKGGGGSGGGGSGGGGSGGGGSQVQLQESGPGLVKPSETLSLTCTVSGVSLPDYGVSWIRQPPGKGLEWIGVIWGSETTYYQSSLKSRVTISKDNSKNQVSLKLSSVTAADTAVYYCAKHYYYGGSYAMDYWGQGTLVTVSSHHHHHHHH |
| binds | 103101 CAR1 Soluble scFv (scFv, Built here without the leader) scFv: EIVMTQSPATLSLSPGERATLSCRASQDISKYLNWYQQKPGQAPRLLIYHTSRLHSGIPARFSGSGSGTDYTLTISSLQPEDFAVYFCQQGNTLPYTFGQGTKLEIKGGGGSGGGGSGGGGSQVQLQESGPGLVKPSETLSLTCTVSGVSLPDYGVSWIRQPPGKGLEWIGVIWGSETTYYSSSLKSRVTISKDNSKNQVSLKLSSVTAADTAVYYCAKHYYYGGSYAMDYWGQGTLVTVSSHHHHHHHH |
| binds | 103102 CAR2 - Soluble scFv (scFv, Built here without the leader) scFv: EIVMTQSPATLSLSPGERATLSCRASQDISKYLNWYQQKPGQAPRLLIYHTSRLHSGIPARFSGSGSGTDYTLTISSLQPEDFAVYFCQQGNTLPYTFGQGTKLEIKGGGGSGGGGSGGGGSQVQLQESGPGLVKPSETLSLTCTVSGVSLPDYGVSWIRQPPGKGLEWIGVIWGSETTYYQSSLKSRVTISKDNSKNQVSLKLSSVTAADTAVYYCAKHYYYGGSYAMDYWGQGTLVTVSSHHHHHHHH |
